Results published in patent publication US7875585 (dated 2011).

B2: L-selectin on rat thoracic duct lymphocytes (receptor, UniProt P30836 39-372, looked up)
chain: WTYHYSERSMNWENARKFCKHNYTDLVAIQNKREIEYLEKTLPKNPTYYWIGIRKIGKTWTWVGTNKTLTKEAENWGTGEPNNKKSKEDCVEIYIKRERDSGKWNDDACHKRKAALCYTASCQPESCNRHGECVETINNNTCICDPGYYGPQCQYVIQCEPLKAPELGTMNCIHPLGDFSFQSQCAFNCSEGSELLGNAKTECGASGNWTYLEPICQVIQCMPLAAPDLGTMECSHPLANFSFTSACTFTCSEETDLIGERKTVCRSSGSWSSPSPICQKTKRSFSKIKEGDYNPLFIPVAVMVTAFSGLAFIIWLARRLKKGKKSQERMDDPY
notes: whole, on cells; also called rat L-selectin; TDL L-selectin

How the values were obtained:
[1] = target: PSGL-1 from HL60 cells (human) (UniProt Q14242); assay: fixed HL60 cells treated with PL-1 (10 µg/ml), rat lymphocyte (L-selectin) rolling at 4.4 dynes/cm^2
[2] = target: PSGL-1 from KG1a cells (human) (UniProt Q14242); assay: fixed KG1a cells treated with PL-1 (10 µg/ml), rat lymphocyte (L-selectin) rolling at 4.4 dynes/cm^2
[3] = target: L-selectin on human lymphocytes or neutrophils (human) (UniProt P14151); assay: Stamper-Woodruff assay, human lymphocytes treated with LAM1-3, on immunoprecipitated KG1a CD44
[4] = target: L-selectin on lymphocytes (human or rat not given); assay: blot rolling assay, lymphocytes over blotted KG1a membrane protein, 2.3 dynes/cm^2
[5] = target: L-selectin on lymphocytes (human or rat not given); assay: Stamper-Woodruff assay, equimolar amounts of KG1a CD44 and PSGL-1, 80 rpm
[6] = target: L-selectin on human lymphocytes or neutrophils (human) (UniProt P14151); assay: cell-based or functional assay
[7] = target: L-selectin on rat thoracic duct lymphocytes (rat) (UniProt P30836); assay: cell-based or functional assay
[8] = target: L-selectin on lymphocytes (human or rat not given); assay: cell-based or functional assay
[9] = target: L-selectin on lymphocytes (human or rat not given); assay: Stamper-Woodruff assay, lymphocytes on immunoprecipitate spotted on glass
[10] = target: B2; assay: Stamper-Woodruff assay, 80 rpm, rat thoracic duct lymphocytes
Description: (§1) Lymphocytes (10^7/ml RPMI-1640 without NaBicarbonate/5'/oFBS) were overlayed onto these fixed immunoprecipitates and incubated on an orbital shaker at 80 rpm for 30 min. at 4° C. The number of adherent lymphocytes was quantified by light microscopy using an ocular grid under 100× magnification (a minimum of 5 fields/slide, 2 slides/experiment, and 3 separate experiments). Data were presented as the mean number of bound lymphocytes±standard deviation. KG1a CD34 and L-selectin control immunoprecipitates were also tested in this manner. To verify the dependence for sialic acid, glutaraldehyde-fixed spots were treated with *Vibrio cholerae* neuraminidase (0.1U/ml RPMI-1640 without NaBicarbonate/2% FBS for 1 hr at 37° C.). In addition, to verify that cellular adhesion was dependent on L-selectin, all assays included negative controls, in which lymphocytes were treated with PMA (50 ng/ml for 30 min at 37° C.) or functional blocking antibodies (anti-rat-L-selectin moAb HRL-1 or anti-human L-selectin moAb LAM1-3;10 µg/ml), or lymphocyte suspensions contained 5 mM EDTA.
(§2) [2]The average number of bound lymphocytes from 5 fields of view at 100x mag. from duplicate slides and a minimum of three experiments. […]

[11] = target: T1, CD34 immunoprecipitated from KG1a cells (human, UniProt P28906 32-385); assay: as above
T1 construct: mature; also called KG1a CD34; CD34 (Molecular Control)
T1 sequence (looked up): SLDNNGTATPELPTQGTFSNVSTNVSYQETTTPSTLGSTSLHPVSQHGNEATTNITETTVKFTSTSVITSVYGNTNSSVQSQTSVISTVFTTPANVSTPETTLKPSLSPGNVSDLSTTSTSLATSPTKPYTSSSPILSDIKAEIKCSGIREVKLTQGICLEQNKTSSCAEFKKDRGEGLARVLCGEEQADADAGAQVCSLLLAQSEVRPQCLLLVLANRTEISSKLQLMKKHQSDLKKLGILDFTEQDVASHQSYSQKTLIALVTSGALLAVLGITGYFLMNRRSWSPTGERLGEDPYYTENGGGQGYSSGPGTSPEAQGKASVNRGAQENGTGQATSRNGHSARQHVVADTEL
Description: as §1, §2

[12] = target: T2, human E-selectin on CHO-E cells (human, UniProt P16581 22-610); assay: blot rolling assay, CHO-E cells over blotted HL60 membrane protein
T2 construct: whole, on cells; also called CD62E
T2 sequence (looked up): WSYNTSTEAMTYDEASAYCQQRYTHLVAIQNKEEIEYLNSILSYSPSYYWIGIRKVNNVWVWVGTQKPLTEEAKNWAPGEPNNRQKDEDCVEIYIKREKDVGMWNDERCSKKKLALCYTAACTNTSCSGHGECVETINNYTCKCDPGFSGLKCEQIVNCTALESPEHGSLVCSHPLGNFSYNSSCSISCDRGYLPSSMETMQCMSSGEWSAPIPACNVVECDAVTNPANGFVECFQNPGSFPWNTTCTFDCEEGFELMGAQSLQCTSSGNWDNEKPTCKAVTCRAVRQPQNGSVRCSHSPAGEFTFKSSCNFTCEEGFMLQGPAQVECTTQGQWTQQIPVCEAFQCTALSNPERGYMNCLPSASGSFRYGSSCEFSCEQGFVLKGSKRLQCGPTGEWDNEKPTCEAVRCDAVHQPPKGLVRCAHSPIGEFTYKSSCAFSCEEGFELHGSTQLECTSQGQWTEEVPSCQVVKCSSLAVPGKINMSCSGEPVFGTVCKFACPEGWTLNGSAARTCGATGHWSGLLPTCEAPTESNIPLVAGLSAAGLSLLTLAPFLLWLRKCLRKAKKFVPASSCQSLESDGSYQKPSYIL
Description: The blot rolling assay was performed as previously described (Dimitroff et al., 2000). Briefly, CHO-E, CHO-P or CHO-Mock transfectants were isolated as described above, washed twice in HBSS and suspended at 10^7/ml in HBSS/10 mM HEPES/2mMCaCl_2 (H/H/Ca++)/10% glycerol. […] The blots were then placed in the parallel-plate flow chamber, and CHO transfectants (2×10^6/ml) were perfused into the chamber. After allowing the cells to come in contact with the blotting membrane, the flow rate was adjusted to exert a shear stress of 3.8 dynes/cm^2. The viscosity of 10% glycerol adhesion assay medium was considered in the calculation of shear stress values. The number of cells rolling on and between each immunostained banding region was quantified under 100× magnification within each field of view on the video monitor using molecular weight markers (Kaleidoscope Molecular Weight Markers, Bio-Rad Lab.; See Blue® from Novex, Inc.) as guides to help align and visualize the apparent molecular weights of the proteins of interest. A minimum of 3 experiments was performed and results were expressed as the mean±SD of cell rolling/field at 100× magnification. […]

Q: Which % Control Mean Lymphocyte Binding (% of untreated control) [1] does the source give for anti-PSGL-1 monoclonal antibody PL-1 here?
A: The % Control Mean Lymphocyte Binding (% of untreated control) was 62.5.

Q: And the % Control Mean Lymphocyte Binding (% of untreated control) [2]?
A: Its % Control Mean Lymphocyte Binding (% of untreated control) is 105.

Q: How did the bound cells/field left after the antibody (bound cells/field) [3] turn out when “anti-human L-selectin monoclonal antibody LAM1-3” was run?
A: The bound cells/field left after the antibody (bound cells/field) was under 10.

Q: How did the fold L-selectin ligand activity compared to other bands [4] turn out when “hematopoietic cell E-selectin/L-selectin ligand (HCELL), the CD44 glycoform of KG1a cells (from UniProt P16070 21-742)” was run?
A: The fold L-selectin ligand activity compared to other bands was under 6 fold.

Q: And the fold lymphocyte binding compared with PSGL-1 [5]?
A: Its fold lymphocyte binding compared with PSGL-1 is under 10 fold.

Q: What about the L-selectin-mediated neutrophil rolling on KG1a cells against HL60 cells, parallel-plate flow chamber [6] of the same molecule?
A: Its L-selectin-mediated neutrophil rolling on KG1a cells against HL60 cells, parallel-plate flow chamber is 4 fold.

Q: And the % Control Mean Lymphocyte Binding; KG1a Cells + mocarhagin (% of untreated control) [7]?
A: Its % Control Mean Lymphocyte Binding; KG1a Cells + mocarhagin (% of untreated control) is 110.

Q: And the % Control Mean Lymphocyte Binding; KG1a Cells +Neur. + DMSO (% of untreated control) [7]?
A: Its % Control Mean Lymphocyte Binding; KG1a Cells +Neur. + DMSO (% of untreated control) is 103.

Q: What about the % Control Mean Lymphocyte Binding; KG1a Cells +Neur. + Tunicamycin (15 µg/ml) (% of untreated control) [7] of the same molecule?
A: The % Control Mean Lymphocyte Binding; KG1a Cells +Neur. + Tunicamycin (15 µg/ml) (% of untreated control) was 34.3.

Q: And the % Control Mean Lymphocyte Binding; KG1a Cells +OSGE (60 µg/ml) (% of untreated control) [7]?
A: Its % Control Mean Lymphocyte Binding; KG1a Cells +OSGE (60 µg/ml) (% of untreated control) is 104.

Q: And the % Control Mean Lymphocyte Binding; KG1a Cells +neuraminidase (Neur.) (0.1 U/ml) (% of untreated control) [7]?
A: The % Control Mean Lymphocyte Binding; KG1a Cells +neuraminidase (Neur.) (0.1 U/ml) (% of untreated control) was 0.3.

Q: And the L-selectin-mediated lymphocyte adherence to KG1a cells against HL60 cells at 80 rpm, Stamper-Woodruff assay [8]?
A: Its L-selectin-mediated lymphocyte adherence to KG1a cells against HL60 cells at 80 rpm, Stamper-Woodruff assay is 10 fold.

Q: And the frequency of rolling lymphocytes on KG1a cells against HL60 cells, parallel-plate flow chamber [8]?
A: The frequency of rolling lymphocytes on KG1a cells against HL60 cells, parallel-plate flow chamber was under 5 fold.

Q: And the bound cells/field (bound cells/field) [9]?
A: The bound cells/field (bound cells/field) was 362.

B1: L-selectin immunoprecipitated from KG1a cells (receptor, human, UniProt P14151 39-372, looked up)
chain: WTYHYSEKPMNWQRARRFCRDNYTDLVAIQNKAEIEYLEKTLPFSRSYYWIGIRKIGGIWTWVGTNKSLTEEAENWGDGEPNNKKNKEDCVEIYIKRNKDAGKWNDDACHKLKAALCYTASCQPWSCSGHGECVEIINNYTCNCDVGYYGPQCQFVIQCEPLEAPELGTMDCTHPLGNFSFSSQCAFSCSEGTNLTGIEETTCGPFGNWSSPEPTCQVIQCEPLSAPDLGIMNCSHPLASFSFTSACTFICSEGTELIGKKKTICESSGIWSNPSPICQKLDKSFSMIKEGDYNPLFIPVAVMVTAFSGLAFIIWLARRLKKGKKSKRSMNDPY
notes: mature; also called L-selectin (Molecular Control)
Q: Does B1 bind [10]?
A: Result: no binding

Q: Does B2 bind [11]?
A: Result: no binding

B3: PSGL-1 from HL60 cells (ligand, human, UniProt Q14242 42-412, looked up)
chain: QATEYEYLDYDFLPETEPPEMLRNSTDTTPLTGPGTPESTTVEPAARRSTGLDAGGAVTELTTELANMGNLSTDSAAMEIQTTQPAATEAQTTQPVPTEAQTTPLAATEAQTTRLTATEAQTTPLAATEAQTTPPAATEAQTTQPTGLEAQTTAPAAMEAQTTAPAAMEAQTTPPAAMEAQTTQTTAMEAQTTAPEATEAQTTQPTATEAQTTPLAAMEALSTEPSATEALSMEPTTKRGLFIPFSVSSVTHKGIPMAASNLSVNYPVGAPDHISVKQCLLAILILALVATIFFVCTVVLAVRLSRKGHMYPVRNYSPTEMVCISSLLPDGGEGPSATANGGLSKAKSPGLTPEPREDREGDDLTLHSFLP
modifications: HECA-452-reactive glycans
notes: mature; also called HL60 PSGL-1; PSGL-1/CLA
Q: Does B3 bind [12]?
A: Result: binds
